Test results: the supplement of paper PMC9732359
± gives the uncertainty stated by the source.

Assay: protein stability index of a GFP-peptide fusion (yeast GPS) (PSI 1-4); higher = more stable; sorted into four equal gates, so the index is relative within each strain
Method in brief: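 Plasmids in a pooled yeast library fused tiled 17-residue yeast protein peptides downstream of GFP and also expressed Cherry. Mid-log cultures grown without leucine were sorted into four equal gates by GFP/Cherry fluorescence ratio. Each gate's plasmids were PCR-amplified and Illumina-sequenced, and reads were matched to strains by barcodes. The protein stability index is derived by multiplying each gate's read frequency by its gate number and summing the results.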

Row | Sequence | protein stability index (doa10∆) | protein stability index (pdr5∆) | protein stability index (san1∆) | protein stability index (ubr1∆)
1 | SEISIIDATLKEELLRD [RRP45] | 2.44 ± 0.094 | 2.22 ± 0.1 | 2.3 ± 0.099 | 2.83 ± 0.11
2 | SEKGFSKEQIHGSIIIL [YCS4] | 2.71 ± 0.12 | 2.37 ± 0.077 | 2.76 ± 0.076 | 2.73 ± 0.087
3 | SEKKDTDGADENVQIGE [SRB4] | 2.65 ± 0.12 | 3.31 ± 0.17 |  | 3.06 ± 0.18
4 | SEVGDAFIFGLQDELKE [SMC3] | 3.2 ± 0.067 | 3.31 ± 0.061 | 3.1 ± 0.057 | 3.25 ± 0.072
5 | SEVQRTMLELLNQLDGF [RPT6] | 2.55 ± 0.1 | 2.5 ± 0.083 | 1.86 ± 0.15 | 2.51 ± 0.07
6 | SEYDRGVSTFSPEGRLF [PUP2] | 3.43 ± 0.1 | 3.28 ± 0.1 | 3.32 ± 0.096 | 3.31 ± 0.065
7 | SFDEWFNTPFANTGGQD [SNF2] | 2.8 ± 0.099 | 2.99 ± 0.12 | 3.41 ± 0.095 | 3.15 ± 0.15
8 | SFFNISPDAPKEIMDKI [SIN4] | 3.48 ± 0.11 | 3.32 ± 0.14 | 3 ± 0.13 | 3.29 ± 0.1
9 | SFKLCTLLIAIRGSNRD [YML103C/NUP188] | 1.31 ± 0.048 | 1.78 ± 0.061 | 2.01 ± 0.077 | 2.41 ± 0.046
10 | SFLDPLNYGNICEPKET [YJL039C/NUP192] | 3.33 ± 0.12 | 2.81 ± 0.085 | 3.01 ± 0.095 | 2.66 ± 0.093
11 | SFQKIPLSRINENENFG [YML103C/NUP188] | 2.88 ± 0.15 | 3.12 ± 0.097 | 2.97 ± 0.079 | 3.24 ± 0.1
12 | SFTDILKSAIRDEIAKN [RPN12] | 2.76 ± 0.1 | 2.98 ± 0.12 | 3.08 ± 0.09 | 2.89 ± 0.065
13 | SGEEKGKKVTGFKDEVL [RPS1A] | 1.39 ± 0.24 | 1.73 ± 0.22 |  | 1.61 ± 0.14
14 | SGKSNILDAICFVLGIA [SMC2] | 1.85 ± 0.07 | 1.86 ± 0.087 | 2.25 ± 0.11 | 1.82 ± 0.066
15 | SGKSNTSNDASNKKETK [ITC1] | 3.14 ± 0.076 | 3.26 ± 0.073 | 3.29 ± 0.058 | 3.18 ± 0.06
16 | SGLNRAISTGNWSLKRF [RET1] | 2.56 ± 0.07 | 2.57 ± 0.078 | 2.67 ± 0.087 | 2.41 ± 0.054
17 | SGNGSNPNTNTNSNNTP [PGD1] | 2.78 ± 0.062 | 3 ± 0.056 | 2.95 ± 0.038 | 2.87 ± 0.041
18 | SGPFKVNGVPLRRVNAR [RPL6A] | 2.67 ± 0.25 | 2.84 ± 0.2 | 2.96 ± 0.24 | 2.77 ± 0.075
19 | SGQKTNRQVMHKMGVER [SIR3] | 3.08 ± 0.21 | 3.75 ± 0.18 | 3.4 ± 0.25 | 3.27 ± 0.22
20 | SGTAATGAASNQSSFNF [YOR098C/NUP1] | 2.7 ± 0.072 | 3.01 ± 0.09 | 2.68 ± 0.12 | 3.07 ± 0.053
21 | SGTTNFMRNGLLEGLNE [UBP6] | 2.73 ± 0.21 | 2.87 ± 0.14 | 3.22 ± 0.17 | 3.45 ± 0.23
22 | SHFSLDQFITSLKCTDP [ITC1] | 2.09 ± 0.073 | 2.42 ± 0.079 | 2.35 ± 0.076 | 2.12 ± 0.1
23 | SHISASASPHLAPNMQL [SNF2] | 2.92 ± 0.041 | 2.83 ± 0.04 | 2.93 ± 0.033 | 3.1 ± 0.032
24 | SHNENKMDFSSKEGQYK [YIL149C/MLP2] | 3.27 ± 0.077 | 3.29 ± 0.07 | 3.25 ± 0.065 | 3.28 ± 0.064
25 | SHNFQNAIFQMESEEVP [PCI8] | 2.85 ± 0.059 | 3.07 ± 0.068 | 2.7 ± 0.049 | 3.07 ± 0.05
26 | SHTGLIRKYGLNICRQC [RPS29A] | 1.51 ± 0.047 | 1.58 ± 0.05 | 1.51 ± 0.093 | 1.89 ± 0.053
